Assay results: publication PMC8961561, “PEPscan: A Broad Spectrum Approach for the Characterization of Protein-Binder Interactions?” (Biomolecules, 2022)

T1: SLAM-Associated Protein (SAP) (UniProt O60880 1-128)
T1 construct: SAP, UniProt O60880, full size 128
T1 sequence (looked up): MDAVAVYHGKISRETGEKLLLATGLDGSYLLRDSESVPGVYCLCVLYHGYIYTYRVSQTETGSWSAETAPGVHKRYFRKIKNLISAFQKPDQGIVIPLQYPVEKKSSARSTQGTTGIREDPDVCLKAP

B1: Fyn fragment ALYDYEARTEDDLSFH (peptide)
peptide: ALYDYEARTEDDLSFH
notes: stretch of Fyn; union of positive overlapping dodecapeptide spots 2:14–16; also called FSYN-SH3 2:14–16; source: spot synthesis on cellulose membrane
B2: MMP1 fragment FREYNLHRVAAHELGHSL (peptide)
peptide: FREYNLHRVAAHELGHSL
notes: stretch of MMP-1; union of positive overlapping dodecapeptide spots 4:11–14; also called MMP1 4:11–14; source: spot synthesis on cellulose membrane

Assays:
[1] = molecular target: T1, SLAM-Associated Protein (SAP); experiment: peptide or protein array; PEPscan: overlapping dodecapeptides (two amino acid shift) spanning the complete sequence of one partner on a cellulose membrane; saturated with 3% non-fat dry milk/3% BSA; incubated with the purified protein partner (4 mg/mL, 4 °C, overnight); antibody against that protein, HRP-conjugated secondary antibody, ECL; details: both partners purified
TIMP-1 = molecular target: T2, TIMP-1 (UniProt P01033 24-207); experiment: as above; details: both partners purified
T2 construct: TIMP-1, UniProt P01033, full size 207
T2 sequence (P01033 24-207): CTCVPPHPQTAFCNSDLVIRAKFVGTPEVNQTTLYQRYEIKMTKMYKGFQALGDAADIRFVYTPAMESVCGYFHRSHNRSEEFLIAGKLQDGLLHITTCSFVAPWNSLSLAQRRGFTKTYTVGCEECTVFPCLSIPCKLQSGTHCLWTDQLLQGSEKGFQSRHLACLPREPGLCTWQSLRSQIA

Binder	binding result [1]	binding result (TIMP-1)
B1	binds	
B2		binds
